Changes are numbered by the printed parent chain. Values belong to the binder of their own block, whether it stands above or below them.
How the values were obtained:
[1] = target: T1, Terbium (Tb) labeled-SNAP tagged ROBO2 expressed on HEK293 cells (Homo sapiens (Human), UniProt Q9HCK4 22-1378, terbium label on the SNAP tag); assay: HTRF competition, competitor d2-SLIT2-N, ROBO2 HEK293 cells
T1 construct: also called Tb-labeled ROBO2 cells; ROBO2 expressing cells; not shown: SNAP tag
T1 sequence: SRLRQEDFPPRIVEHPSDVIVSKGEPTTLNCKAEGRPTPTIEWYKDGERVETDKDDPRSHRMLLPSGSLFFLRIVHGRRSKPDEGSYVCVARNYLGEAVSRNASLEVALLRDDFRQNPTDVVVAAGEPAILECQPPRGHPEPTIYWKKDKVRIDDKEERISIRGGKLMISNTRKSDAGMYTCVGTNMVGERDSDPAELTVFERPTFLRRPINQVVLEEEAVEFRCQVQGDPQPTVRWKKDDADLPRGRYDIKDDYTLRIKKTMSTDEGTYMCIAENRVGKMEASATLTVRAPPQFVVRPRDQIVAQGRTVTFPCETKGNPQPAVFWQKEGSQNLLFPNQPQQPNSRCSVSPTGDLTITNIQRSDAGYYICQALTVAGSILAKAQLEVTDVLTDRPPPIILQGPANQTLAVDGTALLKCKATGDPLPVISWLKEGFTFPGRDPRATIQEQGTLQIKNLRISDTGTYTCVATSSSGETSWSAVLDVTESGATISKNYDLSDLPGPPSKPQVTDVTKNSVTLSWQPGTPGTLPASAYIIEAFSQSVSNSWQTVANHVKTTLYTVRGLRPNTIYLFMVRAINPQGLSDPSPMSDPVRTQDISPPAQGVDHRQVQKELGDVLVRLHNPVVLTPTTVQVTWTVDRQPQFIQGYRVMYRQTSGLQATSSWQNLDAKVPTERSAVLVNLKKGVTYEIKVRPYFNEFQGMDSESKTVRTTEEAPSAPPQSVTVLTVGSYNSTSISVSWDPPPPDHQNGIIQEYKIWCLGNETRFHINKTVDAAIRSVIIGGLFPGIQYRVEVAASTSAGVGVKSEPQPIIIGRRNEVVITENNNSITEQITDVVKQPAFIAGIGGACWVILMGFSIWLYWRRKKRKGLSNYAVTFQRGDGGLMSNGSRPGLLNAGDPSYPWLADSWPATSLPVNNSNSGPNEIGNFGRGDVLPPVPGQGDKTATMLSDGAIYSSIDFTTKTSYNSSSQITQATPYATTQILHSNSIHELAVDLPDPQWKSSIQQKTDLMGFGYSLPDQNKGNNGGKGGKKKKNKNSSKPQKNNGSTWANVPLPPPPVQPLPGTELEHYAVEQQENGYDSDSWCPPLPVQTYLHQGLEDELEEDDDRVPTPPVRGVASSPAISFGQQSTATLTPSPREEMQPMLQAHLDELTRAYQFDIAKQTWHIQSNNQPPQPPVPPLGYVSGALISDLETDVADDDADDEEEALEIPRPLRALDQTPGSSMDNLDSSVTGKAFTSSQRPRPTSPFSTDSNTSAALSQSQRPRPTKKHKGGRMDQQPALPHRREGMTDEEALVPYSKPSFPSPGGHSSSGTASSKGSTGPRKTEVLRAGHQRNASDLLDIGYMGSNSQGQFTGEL
Procedure: A ROBO2-SLIT2-N homogenous time resolved fluorescence (HTRF) assay was used to identify antibodies that were capable of blocking SLIT2-N binding to ROBO2. In this assay, terbium (Tb) labeled-SNAP tagged ROBO2 expressing HEK293 cells were incubated with 5 nM d2-labeled SLIT-2N in the presence of 1 nM anti-ROBO2 antibodies for 1 hour. After incubation, fluorescence at 665 nm and 620 nm was measured on an Envision multilabel plate reader. […] Maximal signal was defined as the HTRF ratio of Tb-labeled ROBO2 cells with d2-labeled SLIT2-N in the absence of antibody, the minimum signal was defined as the HTRF ratio of Tb-labeled ROBO2 expressing HEK293 cells only. One nanomolar (nM) parental antibody, 93H2, was unable to block the HTRF assay, therefore this concentration was selected to identify clones with a higher affinity than 93H2 (Table 2, HTRF Ratio column). […] Antibodies derived from chain (Abcs series) or CDR shuffling (CTIR-2 series) were evaluated in 11-point, 5-fold dilution series with a top concentration of 1500 nM (Table 2 HTRF IC₅₀).
Neutralization of SLIT2-N binding to ROBO2 was assessed ROBO2:SLIT2-N homogenous time resolved fluorescence (HTRF) assay as described in Example 2. Briefly the HTRF assay was performed as follows: terbium (Tb) labeled-SNAP tagged ROBO2 expressing HEK293 cells were incubated with d2-labeled SLIT-2N in the presence of anti-ROBO2 antibodies for 1 hour. After incubation, fluorescence at 665 nm and 620 nm was measured on an Envision multi-label plate reader. […] Maximal signal was defined as the HTRF ratio of Tb-labeled ROBO2 cells with d2-labeled SLIT2-N in the absence of antibody, the minimum signal was defined as the HTRF ratio of Tb-labeled ROBO2 expressing HEK293 cells only.

Human ROBO2 Ig1-Ig2-His = target: T2, Human ROBO2 Ig1-Ig2-His (human, UniProt Q9HCK4 31-220); assay: SPR, antibody on CM5 chip, ROBO2 Ig1-Ig2-His
T2 construct: the His tag is named only in the SPR paragraphs; the Octet and ELISA paragraphs print 'ROBO2 Ig1-Ig2' without a tag; also called ROBO2 Ig1-2; Human ROBO2 Ig 1,2
T2 sequence: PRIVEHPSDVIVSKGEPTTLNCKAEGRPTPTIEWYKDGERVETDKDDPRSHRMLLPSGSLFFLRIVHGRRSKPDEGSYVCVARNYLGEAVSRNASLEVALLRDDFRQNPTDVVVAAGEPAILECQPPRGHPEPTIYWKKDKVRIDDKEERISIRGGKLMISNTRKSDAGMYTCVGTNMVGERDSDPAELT
Procedure: Based upon several criteria, Abcs25 and Abcs35 were selected for further characterization. Using flow cytometry, improvement in the binding EC₅₀ to human ROBO2 relative to the parental 93H2 was evaluated. Starting at 6.7 nM, 11-point, 3-fold dilution series were made for each antibody and used to stain HEK293 overexpressing human ROBO2 as described above for the ROBO2 fold selectivity (Example 2). […] In addition to measuring improved binding to human ROBO2, it was important to ensure that high affinity binding to both cynomolgus monkey ROBO2 and rat ROBO2 was maintained. Using HEK293 cells overexpressing either cynomolgus monkey ROBO2 or rat ROBO2, the relative dose-dependent binding of 93H2, Abcs25 and Abcs35 was evaluated as described above. High affinity binding to both cynomolgus monkey and rat ROBO2 was maintained in Abcs25 and Abcs35 (Table 4). […] Briefly, Abcs35 was immobilized to 300 resonance units (RU) on a CM5 chip. Association of ROBO2 Ig1-Ig2-His (ROBO2) was measured over 5 minutes and dissociation was followed for a period of 10 minutes.
Affinity was measured by standard SPR methods as described in Example 3. Briefly, antibodies were immobilized to a specific measure of resonance units (RU) on a CM5 chip. Association of ROBO2 Ig1-Ig2-His (ROBO2) and dissociation will be followed for a period of time.

B1: Abcs35 (antibody, human IgG1, kappa)
heavy: EVQLVQSGAEVKKPGASVKVSCKASGYTFTGYYMHWVRQAPGQGLEWMGWINPKNGDTEFPQKFQGRVTMTRDTSITTAYMDLSRLRSDDTAVYYCARESGDDAFDIWGQGTMVTVSSASTKGPSVFPLAPSSKSTSGGTAALGCLVKDYFPEPVTVSWNSGALTSGVHTFPAVLQSSGLYSLSSVVTVPSSSLGTQTYICNVNHKPSNTKVDKKVEPKSCDKTHTCPPCPAPEAAGAPSVFLFPPKPKDTLMISRTPEVTCVVVDVSHEDPEVKFNWYVDGVEVHNAKTKPREEQYNSTYRVVSVLTVLHQDWLNGKEYKCKVSNKALPAPIEKTISKAKGQPREPQVYTLPPSREEMTKNQVSLTCLVKGFYPSDIAVEWESNGQPENNYKTTPPVLDSDGSFFLYSKLTVDKSRWQQGNVFSCSVMHEALHNHYTQKSLSLSPGK
light: DIVMTQSPSSLSASVGDRVTITCRASQSISSYLNWYQQKPGKAPKLLIYAASSLQSGVPSRFSGSGSGTDFTLTISSLQPEDFATYYCQQSVGLFFGGGTKVEIKRTVAAPSVFIFPPSDEQLKSGTASVVCLLNNFYPREAKVQWKVDNALQSGNSQESVTEQDSKDSTYSLSSTLTLSKADYEKHKVYACEVTHQGLSSPVTKSFNRGEC
notes: fully human IgG1; VH of Ab96 with VL of Ab123
IC50 [1]: 0.0761 nM
Kd (Human ROBO2 Ig1-Ig2-His): 0.0857 nM

IC50 [1]: 0.0744 nM
Kd (Human ROBO2 Ig1-Ig2-His): 0.0939 nM
B2: Abcs35-J (antibody, human IgG1, kappa)
heavy: B1 heavy with D82E
light: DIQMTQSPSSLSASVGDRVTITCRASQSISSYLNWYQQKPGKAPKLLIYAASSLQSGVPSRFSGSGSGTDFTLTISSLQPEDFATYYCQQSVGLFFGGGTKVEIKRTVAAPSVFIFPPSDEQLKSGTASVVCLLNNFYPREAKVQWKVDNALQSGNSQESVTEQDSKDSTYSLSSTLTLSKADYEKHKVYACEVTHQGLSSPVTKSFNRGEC
notes: germlined variant of Abcs35; also called ABCS-J
